Results from IntAct's records for PubMed 28684427.

B1: ALBINO3-like protein 1, chloroplastic (Arabidopsis thaliana (Mouse-ear cress)), Q9FYL3 (parent)
chain: MSSTISLKPTHLILSSFSTGKVLQFRRSRFSHTPSSSSSRYRTLVAQLGFRPDSFDFIKDHAENLLYTIADAAVSSSETFESVAGTTTKTTQSNDWFSGIANYMETILKVLKDGLSTVHVPYSYGFAIILLTVLVKAATFPLTKKQVESAMAMKSLTPQIKAIQERYAGDQEKIQLETARLYKLAGINPLAGCLPTLATIPVWIGLYRALSNVADEGLLTEGFFWIPSLAGPTTVAARQNGSGISWLFPFIEGHPPLGWPDTLAYLVLPLLLVFSQYLSIQIMQSSQSNDPAMKSSQAVTKLLPLMIGYFALSVPSGLSLYWLTNNILSTAQQVWLQKYGGAKNPVEKFTNLVTKEDKTQQIEKSFSEPLVQKSVSELKIPREKGGEKVTPECPKPGERFRLLKEQEAKRRREKEERQKAEAALSNQNTDKAHEQDEKSDTAIVAEDDKKTELSAVDETSDGTVAVNGKPSIQKDETTNGTFGIGHDTEQQHSHETEKR
partner: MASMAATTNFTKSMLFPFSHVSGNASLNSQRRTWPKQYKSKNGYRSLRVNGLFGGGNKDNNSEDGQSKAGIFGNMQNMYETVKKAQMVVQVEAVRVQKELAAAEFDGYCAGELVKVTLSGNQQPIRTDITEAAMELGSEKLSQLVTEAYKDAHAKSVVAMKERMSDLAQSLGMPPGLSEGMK

Variants of: B1
Conditions: with ebfc2_arath STIC2, O82230

Row | Variant | effect of a mutation on the interaction
1 | MSSTISLKPTHLILSSFSTGKVLQFRRSRFSHTPSSSSSRYRTLVAQLGFRPDSFDFIKDHAENLLYTIADAAVSSSETFESVAGTTTKTTQSNDWFSGIANYMETILKVLKDGLSTVHVPYSYGFAIILLTVLVKAATFPLTKKQVESAMAMKSLTPQIKAIQERYAGDQEKIQLETARLYKLAGINPLAGCLPTLATIPVWIGLYRALSNVADEGLLTEGFFWIPSLAGPTTVAARQNGSGISWLFPFIEGHPPLGWPDTLAYLVLPLLLVFSQYLSIQIMQSSQSNDPAMKSSQAVTKLLPLMIGYFALSVPSGLSLYWLTNNILSTAQQVWLQKYGGAKNPVEKFTNLVTKEDKTQQIEKSFSEPLVQKSVSELKIPREKGGEKVTPECPKPSERFRLLKEQEAKRRREKEERQKAEAALSNQNTDKAHEQDEKSDTAIVAEDDKKTELSAVDETSDGTVAVNGKPSIQKDETTNGTFGIGHDTEQQHSHETEKR [G397S] | decreasing interaction strength

Variants of: B1
Conditions: with ebfc2_arath STIC2, O82230
Remark: another data set of the same source

Row | Variant | effect of a mutation on the interaction
2 | MSSTISLKPTHLILSSFSTGKVLQFRRSRFSHTPSSSSSRYRTLVAQLGFRPDSFDFIKDHAENLLYTIADAAVSSSETFESVAGTTTKTTQSNDWFSGIANYMETILKVLKDGLSTVHVPYSYGFAIILLTVLVKAATFPLTKKQVESAMAMKSLTPQIKAIQERYAGDQEKIQLETARLYKLAGINPLAGCLPTLATIPVWIGLYRALSNVADEGLLTEGFFWIPSLAGPTTVAARQNGSGISWLFPFIEGHPPLGWPDTLAYLVLPLLLVFSQYLSIQIMQSSQSNDPAMKSSQAVTKLLPLMIGYFALSVPSGLSLYWLTNNILSTAQQVWLQKYGGAKNPVEKFTNLVTKEDKTQQIEKSFSEPLVQKSVSELKIPREKGGEKVTPECPKPSERFRLLKEQEAKRRREKEERQKAEAALSNQNTDKAHEQDEKSDTAIVAEDDKKTELSAVDETSDGTVAVNGKPSIQKDETTNGTFGIGHDTEQQHSHETEKR [G397S] | with no effect
